According to patent US20050009119A1:

Target: human nucleophosmin (NPM; B23) (human) (UniProt P06748)
Test: Scatchard analysis, increasing amounts of 125I-labelled antibody on intact cells (cell line not stated)

UniProt P06748, sequence (P06748 whole entry): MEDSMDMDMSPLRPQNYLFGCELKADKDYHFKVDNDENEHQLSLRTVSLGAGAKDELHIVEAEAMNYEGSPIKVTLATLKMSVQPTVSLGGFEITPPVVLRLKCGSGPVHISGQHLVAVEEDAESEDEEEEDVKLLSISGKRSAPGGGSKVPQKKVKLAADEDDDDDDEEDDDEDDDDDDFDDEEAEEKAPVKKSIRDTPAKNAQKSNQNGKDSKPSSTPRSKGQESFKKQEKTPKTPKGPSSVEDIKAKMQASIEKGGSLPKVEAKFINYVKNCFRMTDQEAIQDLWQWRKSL

Kd: 8.2 nM
Substance: mouse monoclonal anti-nucleophosmin antibody (Zymed Laboratories, catalog no. 32-5200)
